What is called Kd is the free concentration of one partner at which half of the binding sites on the other are occupied at equilibrium, for simple one-to-one binding. A high value points to a looser complex.

Data on six molecules can be found in patent publication US20200199241A1 (Chugai, published 2020).

Assay [1] has as its target T1, FcγRIIb (human, UniProt P31994 43-217, limits assumed).
T1 construct: SPR analyte; also called FcγIIB; CD32
T1 sequence: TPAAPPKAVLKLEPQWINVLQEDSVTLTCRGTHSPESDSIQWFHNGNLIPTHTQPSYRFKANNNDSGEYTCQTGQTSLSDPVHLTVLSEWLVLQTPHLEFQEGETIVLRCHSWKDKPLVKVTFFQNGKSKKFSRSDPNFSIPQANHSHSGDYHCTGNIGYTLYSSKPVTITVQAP
Put plainly: ratio of SPR KDs; reference IL6R-B3/IL6R-L.
Description: (§1) Furthermore, KD(IIaR)/KD(IIb) and KD(IIaH)/KD(IIb) in the table respectively represent the value obtained by dividing the KD value of each variant for FcγRIIaR by the KD value of each variant for FcγRIIb, and the value obtained by dividing the KD value of each variant for FcγRIIaH by the KD value of each variant for FcγRIIb. KD(IIb) of the parent polypeptide/KD(IIb) of the altered polypeptide refers to the value obtained by dividing the KD value of the parent polypeptide for FcγRIIb by the KD value of each variant for FcγRIIb.

Assay [2] concerns the target T1, FcγRIIb. Put plainly: SPR (Biacore), antibody captured, FcγR analyte.
Description: as §1
In another assay the target is T2, FcγRIIa type R (human, UniProt P12318 36-217).
T2 construct: SPR analyte; also called FcγRIIaR; FcγRIIa(R)
T2 chain: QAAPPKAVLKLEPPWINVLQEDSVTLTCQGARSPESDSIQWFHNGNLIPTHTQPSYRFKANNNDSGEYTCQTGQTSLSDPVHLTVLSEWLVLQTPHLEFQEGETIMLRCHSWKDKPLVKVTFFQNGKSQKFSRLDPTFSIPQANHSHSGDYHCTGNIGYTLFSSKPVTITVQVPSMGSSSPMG
Put plainly: SPR (Biacore), antibody captured, FcγR analyte.

Assay [3] concerns the target T3, FcγRIa (human, UniProt P12314 16-292, limits assumed).
T3 construct: SPR analyte; also called CD64
Description: SPR (Biacore), antibody captured, FcγR analyte.
T3 sequence (P12314 16-292 limits assumed): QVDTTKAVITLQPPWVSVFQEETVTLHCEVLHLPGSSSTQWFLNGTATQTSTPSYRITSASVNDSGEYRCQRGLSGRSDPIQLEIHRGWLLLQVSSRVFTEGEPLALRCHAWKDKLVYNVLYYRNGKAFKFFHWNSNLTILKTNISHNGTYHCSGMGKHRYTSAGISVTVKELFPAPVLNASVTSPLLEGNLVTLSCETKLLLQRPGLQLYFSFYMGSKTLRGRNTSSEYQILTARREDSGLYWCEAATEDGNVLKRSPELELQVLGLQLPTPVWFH
Description: as §1

The target in the next assay is T4, FcγRIIIa type V (human, UniProt P08637 17-208, limits assumed).
T4 construct: SPR analyte; allotype V158 was used here; also called FcγRIIIaV; FcγRIIIa(V)
Description: SPR (Biacore), antibody captured, FcγR analyte. (Surface plasmon resonance follows binding to a sensor surface in real time, without labels.)

The target in assay [4] is T5, FcγRIIa type H (human, UniProt P12318 36-217).
T5 construct: SPR analyte; also called FcγRIIaH
T5 sequence: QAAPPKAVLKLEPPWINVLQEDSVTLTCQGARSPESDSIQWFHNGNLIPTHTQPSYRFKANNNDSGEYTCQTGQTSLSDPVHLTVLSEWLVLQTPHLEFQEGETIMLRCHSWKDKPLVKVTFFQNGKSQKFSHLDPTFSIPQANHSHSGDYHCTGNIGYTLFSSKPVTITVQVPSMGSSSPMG
Put plainly: SPR (Biacore), antibody captured, FcγR analyte.
Description: as §1

Assay [5] concerns the target T6, FcγRIIb (human, UniProt P31994 43-217, limits assumed).
T6 construct: also called FcγIIB; CD32
T6 sequence: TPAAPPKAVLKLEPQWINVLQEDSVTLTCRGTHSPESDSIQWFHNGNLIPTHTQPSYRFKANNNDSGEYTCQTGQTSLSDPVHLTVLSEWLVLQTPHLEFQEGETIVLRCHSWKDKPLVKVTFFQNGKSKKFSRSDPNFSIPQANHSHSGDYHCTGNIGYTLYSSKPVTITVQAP
Put plainly: ratio of SPR KD values, parent IL6R-B3/IL6R-L.
Description: as §1

Assay [6] concerns the target T7, FcγRIIa type H (human, UniProt P12318 36-217).
T7 construct: also called FcγRIIaH; FcγRIIa(H)
T7 sequence: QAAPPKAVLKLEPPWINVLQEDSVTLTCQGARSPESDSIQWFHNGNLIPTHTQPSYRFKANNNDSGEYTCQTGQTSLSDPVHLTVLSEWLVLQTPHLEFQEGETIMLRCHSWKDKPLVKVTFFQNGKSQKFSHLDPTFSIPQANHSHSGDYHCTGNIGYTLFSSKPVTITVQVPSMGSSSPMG
Put plainly: SPR (Biacore), method of Example 14.
Description: as §1

Assay [7] deals with T6, FcγRIIb. Put plainly: SPR (Biacore), method of Example 14.
Description: as §1
In assay [8] the target is T8, FcγRIa (human, UniProt P12314 16-292, limits assumed).
T8 construct: also called CD64
Put plainly: SPR (Biacore), method of Example 14.
T8 sequence (P12314 16-292 limits assumed): as the sequence (P12314 16-292 limits assumed) above
Description: as §1

T4 sequence (P08637 other isoform, or with tags, fused parts or gaps limits assumed): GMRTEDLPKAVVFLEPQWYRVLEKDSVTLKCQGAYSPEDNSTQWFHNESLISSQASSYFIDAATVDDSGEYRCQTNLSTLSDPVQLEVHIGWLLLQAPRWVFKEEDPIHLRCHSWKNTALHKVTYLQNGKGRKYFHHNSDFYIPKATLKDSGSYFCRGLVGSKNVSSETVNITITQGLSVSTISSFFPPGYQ
Description for FcγRIIIa type V: as §1
Description for FcγRIIa type R: as §1

B1: IL6R-BP145/IL6R-L (antibody, human IgG1)
heavy: QVQLQESGPGLVKPSETLSLTCAVSGHSISHDHAWSWVRQPPGEGLEWIGFISYSGITNYNPSLQGRVTISRDNSKNTLYLQMNSLRAEDTAVYYCARSLARTTAMDYWGEGTLVTVSSASTKGPSVFPLAPSSKSTSGGTAALGCLVKDYFPEPVTVSWNSGALTSGVHTFPAVLQSSGLYSLSSVVTVPSSSLGTQTYICNVNHKPSNTKVDKKVEPKSCDKTHTCPPCPAPEYLGDDSVFLFPPKPKDTLMISRTPEVTCVVVDVSHEDPEVKFNWYVDGVEVHNAKTKPREEQYNSTYRVVSVLTVLHQDWLNGKEYKCKVSNKALPAPIEKTISKAKGQPREPQVYTLPPSRDELTKNQVSLTCLVKGFYPSDIAVEWESNGQPENNYKTTPPVLDSDGSFFLYSKLTVDKSRWQQGNVFSCSVMHEALHNHYTQESLSLSP
light: DIQMTQSPSSLSASVGDRVTITCRASQDISSYLNWYQQKPGKAPKLLIYYTSRLHSGVPSRFSGSGSGTDFTFTISSLQPEDIATYYCQQGNTLPYTFGQGTKVEIK
Regarding B1, the “KD(IIb) of the parent polypeptide/KD(IIb) of altered polypeptide” value (shortened to “KD(IIb)”) with FcγRIIb [1] came to 9.1. In addition, the Kd in the assay with FcγRIIb [2] was found to be 340 nM; with FcγRIIa type R, 3400 nM; with FcγRIa [3], 120 nM; with FcγRIIIa type V it was 45000 nM; with FcγRIIa type H [4], 17000 nM.

B2: IL6R-BP193/IL6R-L (antibody, human IgG1)
heavy: QVQLQESGPGLVKPSETLSLTCAVSGHSISHDHAWSWVRQPPGEGLEWIGFISYSGITNYNPSLQGRVTISRDNSKNTLYLQMNSLRAEDTAVYYCARSLARTTAMDYWGEGTLVTVSSASTKGPSVFPLAPSSKSTSGGTAALGCLVKDYFPEPVTVSWNSGALTSGVHTFPAVLQSSGLYSLSSVVTVPSSSLGTQTYICNVNHKPSNTKVDKKVEPKSCDKTHTCPPCPAPDLLGGDSVFLFPPKPKDTLMISRTPEVTCVVVDVSDEDGEVKFNWYVDGVEVHNAKTKPREEQYNSTYRVVSVLTVLHQDWLNGKEYKCKVSNKALPKPIEKTISKAKGQPREPQVYTLPPSRDELTKNQVSLTCLVKGFYPSDIAVEWESNGQPENNYKTTPPVLDSDGSFFLYSKLTVDKSRWQQGNVFSCSVMHEALHNHYTQESLSLSP
light: DIQMTQSPSSLSASVGDRVTITCRASQDISSYLNWYQQKPGKAPKLLIYYTSRLHSGVPSRFSGSGSGTDFTFTISSLQPEDIATYYCQQGNTLPYTFGQGTKVEIK
notes: Anti-IL-6R human IgG1 variant; copies: 2 + 2
For B2, in the assay with FcγRIIb [5], the “KD(IIb)” value was 25.5 fold. In addition, the Kd with FcγRIIa type H [6] was 25000 nM; in the assay with FcγRIIb [7], 120 nM; with FcγRIa [8] it was 6.3 nM.

B3: IL6R-BP181/IL6R-L (antibody, human IgG1)
heavy: QVQLQESGPGLVKPSETLSLTCAVSGHSISHDHAWSWVRQPPGEGLEWIGFISYSGITNYNPSLQGRVTISRDNSKNTLYLQMNSLRAEDTAVYYCARSLARTTAMDYWGEGTLVTVSSASTKGPSVFPLAPSSKSTSGGTAALGCLVKDYFPEPVTVSWNSGALTSGVHTFPAVLQSSGLYSLSSVVTVPSSSLGTQTYICNVNHKPSNTKVDKKVEPKSCDKTHTCPPCPAPDLLGGDSVFLFPPKPKDTLMISRTPEVTCVVVDVSHEDGEVKFNWYVDGVEVHNAKTKPREEQYNSTYRVVSVLTVLHQDWLNGKEYKCKVSNAALPKPIEKTISKAKGQPREPQVYTLPPSRDELTKNQVSLTCLVKGFYPSDIAVEWESNGQPENNYKTTPPVLDSDGSFFLYSKLTVDKSRWQQGNVFSCSVMHEALHNHYTQESLSLSP
light: DIQMTQSPSSLSASVGDRVTITCRASQDISSYLNWYQQKPGKAPKLLIYYTSRLHSGVPSRFSGSGSGTDFTFTISSLQPEDIATYYCQQGNTLPYTFGQGTKVEIK
B3: the “KD(IIb)” value with FcγRIIb [1] is 19.3. For the same molecule, the Kd was found to be 160 nM in the assay with FcγRIIb [2]; 3200 nM in the assay with FcγRIIa type R; 7.5 nM with FcγRIa [3]; 57000 nM with FcγRIIIa type V; 26000 nM with FcγRIIa type H [4].

B4: IL6R-BP176/IL6R-L (antibody, human IgG1)
heavy: QVQLQESGPGLVKPSETLSLTCAVSGHSISHDHAWSWVRQPPGEGLEWIGFISYSGITNYNPSLQGRVTISRDNSKNTLYLQMNSLRAEDTAVYYCARSLARTTAMDYWGEGTLVTVSSASTKGPSVFPLAPSSKSTSGGTAALGCLVKDYFPEPVTVSWNSGALTSGVHTFPAVLQSSGLYSLSSVVTVPSSSLGTQTYICNVNHKPSNTKVDKKVEPKSCDKTHTCPPCPAPDLLGGDSVFLFPPKPKDTLMISRTPEVTCVVVDVSHEDPEVKFNWYVDGVEVHNAKTKPREEQYNSTYRVVSVLTVLHQDWLNGKEYKCKVSNDALPKPIEKTISKAKGQPREPQVYTLPPSRDELTKNQVSLTCLVKGFYPSDIAVEWESNGQPENNYKTTPPVLDSDGSFFLYSKLTVDKSRWQQGNVFSCSVMHEALHNHYTQESLSLSP
light: DIQMTQSPSSLSASVGDRVTITCRASQDISSYLNWYQQKPGKAPKLLIYYTSRLHSGVPSRFSGSGSGTDFTFTISSLQPEDIATYYCQQGNTLPYTFGQGTKVEIK
Consider B4, for which the “KD(IIb)” value with FcγRIIb [1] is 8.6. The dissociation constant Kd turned out to be 360 nM in the assay with FcγRIIb [2]; 6900 nM with FcγRIIa type R; 7.3 nM with FcγRIa [3]; 54000 nM with FcγRIIIa type V; 30000 nM in the assay with FcγRIIa type H [4].

B5: IL6R-BP199/IL6R-L (antibody, human IgG1)
heavy: QVQLQESGPGLVKPSETLSLTCAVSGHSISHDHAWSWVRQPPGEGLEWIGFISYSGITNYNPSLQGRVTISRDNSKNTLYLQMNSLRAEDTAVYYCARSLARTTAMDYWGEGTLVTVSSASTKGPSVFPLAPSSKSTSGGTAALGCLVKDYFPEPVTVSWNSGALTSGVHTFPAVLQSSGLYSLSSVVTVPSSSLGTQTYICNVNHKPSNTKVDKKVEPKSCDKTHTCPPCPAPDLLGGDSVFLFPPKPKDTLMISRTPEVTCVVVDVSHEDPEVKFNWYVDGVEVHNAKTKPREEQYNSTYRVVSVLTVLHQDWLNGKEYKCKVSNDALPRPIEKTISKAKGQPREPQVYTLPPSRDELTKNQVSLTCLVKGFYPSDIAVEWESNGQPENNYKTTPPVLDSDGSFFLYSKLTVDKSRWQQGNVFSCSVMHEALHNHYTQESLSLSP
light: DIQMTQSPSSLSASVGDRVTITCRASQDISSYLNWYQQKPGKAPKLLIYYTSRLHSGVPSRFSGSGSGTDFTFTISSLQPEDIATYYCQQGNTLPYTFGQGTKVEIK
notes: as for B2
Regarding B5, in the assay with FcγRIIb [5], the “KD(IIb)” value stood at 6.3 fold. Moreover, the figures for the Kd with FcγRIIa type H [6], with FcγRIIb [7] and in the assay with FcγRIa [8] were 26000 nM, 490 nM and 6.4 nM, respectively.

B6: IL6R-BP148/IL6R-L (antibody, human IgG1)
heavy: QVQLQESGPGLVKPSETLSLTCAVSGHSISHDHAWSWVRQPPGEGLEWIGFISYSGITNYNPSLQGRVTISRDNSKNTLYLQMNSLRAEDTAVYYCARSLARTTAMDYWGEGTLVTVSSASTKGPSVFPLAPSSKSTSGGTAALGCLVKDYFPEPVTVSWNSGALTSGVHTFPAVLQSSGLYSLSSVVTVPSSSLGTQTYICNVNHKPSNTKVDKKVEPKSCDKTHTCPPCPAPDYLGDDSVFLFPPKPKDTLMISRTPEVTCVVVDVSHEDPEVKFNWYVDGVEVHNAKTKPREEQYNSTYRVVSVLTVLHQDWLNGKEYKCKVSNAALPKPIEKTISKAKGQPREPQVYTLPPSRDELTKNQVSLTCLVKGFYPSDIAVEWESNGQPENNYKTTPPVLDSDGSFFLYSKLTVDKSRWQQGNVFSCSVMHEALHNHYTQESLSLSP
light: DIQMTQSPSSLSASVGDRVTITCRASQDISSYLNWYQQKPGKAPKLLIYYTSRLHSGVPSRFSGSGSGTDFTFTISSLQPEDIATYYCQQGNTLPYTFGQGTKVEIK
Consider B6, for which, in the assay with FcγRIIb [1], the “KD(IIb)” value was found to be 41.4. The Kd is 75 nM with FcγRIIb [2]; 1100 nM in the assay with FcγRIIa type R; 89 nM in the assay with FcγRIa [3]; 30000 nM with FcγRIIIa type V; around 7000 nM in the assay with FcγRIIa type H [4].
